Experimental data from PMC3553968 (Nucleic Acids Research, 2012).

B1: Noc1p (recombinant, untagged) (natural protein)
chain: MSENNGNPLDLSSLRNKISSKLRDNNSKKAKKTHKGKDVKASSNSKKVNEDIRREALALGASEEDLKLIQGLSDDDDAKSEQEFDAVADEDADDKGFKNDLQNFMKNVGFDQHKLEDVDDDDIEEESTSSKESKIPAQEKEHAQSNIASSTIEKTSQESIDNGSEQEENTVEEANLSSDQEPESESAEKEKKEEKDGGLITQTTIISSDKLIIPYDKPWYEIPLDPQVGQNDDVEELSKEQIEKLFERGKQTLEADNQTYYEEFTKDSSQAKFMSQILSDGTLNDKISAVTLLIQDSPLHNTKSLETLVSYCGKKSRNSALQSLNALKDLFLNGLLPNRKLRYFKNQPGLSMMLNKKTLAIFYFEDYLKKLFFRVLEVLEVLSHDPIIHVRLQILNHVFDLLTNQPEQEFNLLRLGVNKIGDIDSKVSSKASYLLLKLEQAHPNMKSIVIDAIVDIALRPNADYHTTYYSVITLNQTILKRSEDSVANKLVKTYFTLFEKFLINTDKDNTNGVVKSNSKSYEEKRKKNFKKGKHGGKSVKIEKTENEVLDEKNSKLFSALLTGINRAFPFAQIPASVYEVHMETLFKITHSSNFNTSIQALVLINQVTVKAKLNSDRYYRTLYESLFDPRLVNSSKQGIYLNLLYKSLKQDALNVERVEAFVKRILQVCSHWLNVGTITGFFFLLIQLAKTVPQIKNLLTNTPVDYEYESDAEEEQGDKDIKRKEYDGRKRDPKFANAEKSSLWEINNFINHFHPTVKTYANAYVTGETEQIAKPDLGLFTLSHFLDRFVYRSAKQTNTARGTSIMQPLFSGSRVNDSVLVKASDIMHDQGPVNTEDWLTKKVEDIKPEDKFFYQYFTTKKTADGKGKKSNKASNFDSDDEMDENEIWSALVKSRPDVEDDSDDSELDFAEDDFSDSTSDDEPKLDAIDDEDAKSEGSQESDQEEGLDEDIFYSFDGEQDNSDKKRSFAESSEEDESSEEEKEEEENKEVSAKRAKKKQRKNMLKSLPVFASADDYAQYLDQDSD

Key:
HA-Rrp5p = HA-Rrp5p (S. cerevisiae, UniProt Q05022 1-1729); test: SEC
Sequence of HA-Rrp5p (Q05022 whole entry): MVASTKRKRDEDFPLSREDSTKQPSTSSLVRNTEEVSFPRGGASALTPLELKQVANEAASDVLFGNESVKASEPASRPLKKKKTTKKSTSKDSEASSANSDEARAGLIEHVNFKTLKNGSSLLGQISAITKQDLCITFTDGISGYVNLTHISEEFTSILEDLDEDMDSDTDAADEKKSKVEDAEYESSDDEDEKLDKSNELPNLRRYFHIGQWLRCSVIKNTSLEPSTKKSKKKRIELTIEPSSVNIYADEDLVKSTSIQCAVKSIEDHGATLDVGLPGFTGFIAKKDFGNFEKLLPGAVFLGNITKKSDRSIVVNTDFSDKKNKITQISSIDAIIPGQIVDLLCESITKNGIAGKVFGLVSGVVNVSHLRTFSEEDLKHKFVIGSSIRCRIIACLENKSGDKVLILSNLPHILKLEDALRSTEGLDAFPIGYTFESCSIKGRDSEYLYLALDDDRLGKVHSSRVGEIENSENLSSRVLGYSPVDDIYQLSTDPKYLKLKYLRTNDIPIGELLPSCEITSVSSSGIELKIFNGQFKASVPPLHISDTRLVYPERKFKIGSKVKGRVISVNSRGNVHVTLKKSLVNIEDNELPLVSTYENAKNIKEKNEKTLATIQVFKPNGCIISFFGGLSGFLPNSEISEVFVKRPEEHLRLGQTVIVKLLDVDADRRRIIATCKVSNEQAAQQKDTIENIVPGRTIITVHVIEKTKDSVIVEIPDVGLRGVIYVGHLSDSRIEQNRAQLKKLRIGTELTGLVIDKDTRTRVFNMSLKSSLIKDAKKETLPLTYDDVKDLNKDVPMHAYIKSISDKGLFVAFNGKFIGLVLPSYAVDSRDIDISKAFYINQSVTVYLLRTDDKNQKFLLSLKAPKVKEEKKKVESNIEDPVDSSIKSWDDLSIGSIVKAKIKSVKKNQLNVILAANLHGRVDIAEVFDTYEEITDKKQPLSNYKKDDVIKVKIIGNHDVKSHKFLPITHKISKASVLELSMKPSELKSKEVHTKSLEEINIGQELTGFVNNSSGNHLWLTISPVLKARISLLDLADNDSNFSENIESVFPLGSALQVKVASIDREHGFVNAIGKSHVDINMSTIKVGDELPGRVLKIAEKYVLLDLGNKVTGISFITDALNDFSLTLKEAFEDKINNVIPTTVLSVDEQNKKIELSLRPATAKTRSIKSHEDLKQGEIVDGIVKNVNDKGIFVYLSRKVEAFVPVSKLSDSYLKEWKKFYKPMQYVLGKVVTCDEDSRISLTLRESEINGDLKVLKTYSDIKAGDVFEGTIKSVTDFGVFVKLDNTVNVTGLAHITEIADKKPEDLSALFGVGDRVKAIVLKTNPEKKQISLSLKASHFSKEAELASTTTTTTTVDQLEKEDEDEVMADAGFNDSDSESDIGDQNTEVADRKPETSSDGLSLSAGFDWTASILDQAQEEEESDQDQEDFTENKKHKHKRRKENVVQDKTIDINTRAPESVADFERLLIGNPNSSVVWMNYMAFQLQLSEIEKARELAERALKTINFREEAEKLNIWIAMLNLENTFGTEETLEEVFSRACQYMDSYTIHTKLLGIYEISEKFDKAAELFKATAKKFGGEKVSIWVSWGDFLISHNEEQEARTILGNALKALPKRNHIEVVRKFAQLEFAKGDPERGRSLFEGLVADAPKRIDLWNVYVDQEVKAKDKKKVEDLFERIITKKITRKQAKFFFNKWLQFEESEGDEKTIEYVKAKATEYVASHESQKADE

[1] = molecular target: B1; test: SEC

binding result (HA-Rrp5p)	binding result [1]	Binder
binds		B1
	binds	Flag-Noc2p (natural protein) MGKVSKSTKKFQSKHLKHTLDQRRKEKIQKKRIQGRRGNKTDQEKADAAGTREQQQLKKSAKEEVFKDMSVETFFEKGIEIPKENKKLKKKTTKEQSDEDSSSSEEEEDMGQSMAKLAEKDPEFYKYLEENDKDLLDFAGTNPLDGIDSQDEGEDAERNSNIEEKSEQMELEKEKIELSLKLVRKWKKQLHDSPSLKLLRNIISAFKVAVNLNKEENIEDYKYAITDEKAFHELMFMVLKDVPQAIQKMAPYKIVKGARTLPNGGNVSRVSSIVKSHAGSLLILLNDITNTETAALVLHSVNELMPYLLSYRRILKELIKSIVGVWSTTRELETQIASFAFLINTTKEFKKSMLETTLKTTYSTFIKSCRKTNMRSMPLINFQKNSAAELFGIDEVLGYQVGFEYIRQLAIHLRNTMNATTKKSSKINSAEAYKIVYNWQFCHSLDFWSRVLSFACQPEKENGSESPLRQLIYPLVQVTLGVIRLIPTPQFFPLRFYLIKSLIRLSQNSGVFIPIYPLLSEILTSTAFTKAPKKSPNLAAFDFEHNIKCTQAYLNTKIYQEGLSEQFVDLLGDYFALYCKNIAFPELVTPVIISLRRYIKTSTNVKLNKRLSTVVEKLNQNSTFIQEKRSDVEFGPTNKSEVSRFLNDVAWNKTPLGSYVAVQREVKEEKARLMRESMEEQDKERETEEAKLLNSLESDDDNEDVEMSDA
